tested on: Escherichia coli TOP10; test: shrunken log2 fold change of peptide-encoding DNA abundance (4.5 h post-induction vs induction); higher = less antimicrobial activity (less host growth inhibition); details: time post-induction: 4.5 h; library: site-saturation at positions 5, 18, 19, 20
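Note: peptides expressed intracellularly from a pBAD plasmid library in pooled LB shake-flask culture, induced with 0.3% L-arabinose, DNA abundance read by NGS, three biological replicates, DESeq2 with apeglm shrinkage.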

Sequence	shrunken log2 fold change
RRIRPRPPRLPRPRPRPSYDPRP	-0.526
RRIRDRPPRLPRPRPRPKHFPRP	-0.15
RRIRNRPPRLPRPRPRPHRCPRP	-0.0136
RRIRPRPPRLPRPRPRPTNMPRP	-0.298
RRIRDRPPRLPRPRPRPVIIPRP	-0.316
RRIRYRPPRLPRPRPRPCPAPRP	-0.772
RRIRNRPPRLPRPRPRPEEWPRP	0.108
RRIRCRPPRLPRPRPRPWIEPRP	-0.123
RRIRWRPPRLPRPRPRPYPEPRP	-0.224
RRIRKRPPRLPRPRPRPGVLPRP	0.293
RRIRDRPPRLPRPRPRPNFPPRP	-0.0273
RRIRPRPPRLPRPRPRPAMKPRP	0.162
RRIRVRPPRLPRPRPRPWYKPRP	-0.252
RRIRNRPPRLPRPRPRPDFIPRP	-0.111
RRIRSRPPRLPRPRPRPKDQPRP	0.232
RRIRMRPPRLPRPRPRPCHFPRP	-0.0459
RRIRTRPPRLPRPRPRPVAIPRP	-0.168
RRIRFRPPRLPRPRPRPDCMPRP	-0.286
RRIRIRPPRLPRPRPRPPSDPRP	-0.101
RRIRIRPPRLPRPRPRPDKRPRP	-0.0405
RRIRIRPPRLPRPRPRPKRRPRP	0.123
RRIRDRPPRLPRPRPRPGKLPRP	0.0495
RRIRARPPRLPRPRPRPKIKPRP	0.0665
RRIRMRPPRLPRPRPRPMDNPRP	0.0672
RRIRWRPPRLPRPRPRPPMFPRP	-0.00833

Sequence	shrunken log2 fold change
RRIRHRPPRLPRPRPRPRRRPRP	0.0874
RRIRLRPPRLPRPRPRPFWVPRP	-0.11
RRIRFRPPRLPRPRPRPLWLPRP	-0.0557
RRIRPRPPRLPRPRPRPHKRPRP	0.0853
RRIRVRPPRLPRPRPRPRRSPRP	0.349
RRIRARPPRLPRPRPRPFDHPRP	-0.394
RRIRCRPPRLPRPRPRPKMMPRP	-0.113
RRIRSRPPRLPRPRPRPIVRPRP	-0.11
RRIRSRPPRLPRPRPRPAMPPRP	0.206
RRIRQRPPRLPRPRPRPHCVPRP	-0.0218
RRIRLRPPRLPRPRPRPRLFPRP	0.17
RRIRWRPPRLPRPRPRPSPIPRP	-0.0871
RRIRHRPPRLPRPRPRPKQQPRP	-0.0484
RRIRFRPPRLPRPRPRPPYVPRP	-0.36
RRIRKRPPRLPRPRPRPPPAPRP	1.29
RRIRIRPPRLPRPRPRPLEWPRP	-0.0139
RRIRNRPPRLPRPRPRPHQQPRP	0.317
RRIRRRPPRLPRPRPRPFQNPRP	0.0537
RRIRIRPPRLPRPRPRPVTDPRP	-0.00257
RRIRDRPPRLPRPRPRPMHRPRP	-0.0439
RRIRWRPPRLPRPRPRPVQGPRP	-0.124
RRIRERPPRLPRPRPRPPEAPRP	0.192
RRIRERPPRLPRPRPRPYKEPRP	-0.117
RRIRGRPPRLPRPRPRPLMWPRP	0.4
RRIRLRPPRLPRPRPRPQYSPRP	-0.1

Sequence	shrunken log2 fold change
RRIRHRPPRLPRPRPRPHAVPRP	-0.0488
RRIRSRPPRLPRPRPRPNDCPRP	-0.00188
RRIRWRPPRLPRPRPRPLAQPRP	0.469
RRIRTRPPRLPRPRPRPHESPRP	-0.0124
RRIRPRPPRLPRPRPRPSCNPRP	-0.314
RRIRARPPRLPRPRPRPGAHPRP	0.669
RRIRFRPPRLPRPRPRPSDHPRP	-0.221
RRIRLRPPRLPRPRPRPTIDPRP	-0.521
RRIRRRPPRLPRPRPRPQNTPRP	-0.218
RRIRMRPPRLPRPRPRPQNWPRP	0.532
RRIRARPPRLPRPRPRPYPRPRP	0.00693
RRIRQRPPRLPRPRPRPDDFPRP	-0.0929
RRIRKRPPRLPRPRPRPICPPRP	-0.122
RRIRARPPRLPRPRPRPKAPPRP	0.56
RRIRYRPPRLPRPRPRPDLFPRP	0.108
RRIRSRPPRLPRPRPRPMIHPRP	-0.0892
RRIRPRPPRLPRPRPRPQLEPRP	0.376
RRIRHRPPRLPRPRPRPKDNPRP	-0.201
RRIRQRPPRLPRPRPRPIYWPRP	0.0909
RRIRKRPPRLPRPRPRPIRYPRP	-0.118
RRIRWRPPRLPRPRPRPCIAPRP	0.00205
RRIRARPPRLPRPRPRPPDFPRP	0.708
RRIRERPPRLPRPRPRPGVTPRP	0.00546
RRIRARPPRLPRPRPRPILSPRP	0.376
RRIRGRPPRLPRPRPRPQYHPRP	-0.141

Sequence	shrunken log2 fold change
RRIRKRPPRLPRPRPRPYTHPRP	-0.376
RRIRKRPPRLPRPRPRPCGAPRP	0.45
RRIRCRPPRLPRPRPRPHQFPRP	0.0354
RRIRYRPPRLPRPRPRPKFHPRP	-1.15
RRIRERPPRLPRPRPRPQWGPRP	-0.252
RRIRHRPPRLPRPRPRPILHPRP	-0.0471
RRIRSRPPRLPRPRPRPKHDPRP	-0.0942
RRIRFRPPRLPRPRPRPSHQPRP	-0.229
RRIRSRPPRLPRPRPRPAEKPRP	0.0409
RRIRMRPPRLPRPRPRPFLVPRP	-0.0501
RRIRHRPPRLPRPRPRPSQWPRP	-0.451
RRIRGRPPRLPRPRPRPRVKPRP	0.856
RRIRDRPPRLPRPRPRPSPWPRP	0.188
RRIRCRPPRLPRPRPRPGILPRP	-0.233
RRIRVRPPRLPRPRPRPDMFPRP	0.0441
RRIRGRPPRLPRPRPRPISIPRP	0.199
RRIRVRPPRLPRPRPRPLWVPRP	-0.147
RRIRARPPRLPRPRPRPENPPRP	1.14
RRIRMRPPRLPRPRPRPFRWPRP	-0.0454
RRIRKRPPRLPRPRPRPQYKPRP	-0.343
RRIRKRPPRLPRPRPRPTQEPRP	0.294
RRIRCRPPRLPRPRPRPLRAPRP	1.02
RRIRWRPPRLPRPRPRPIPVPRP	-0.11
RRIRHRPPRLPRPRPRPHKRPRP	0.0586
RRIRTRPPRLPRPRPRPKAHPRP	0.182

Sequence	shrunken log2 fold change
RRIRTRPPRLPRPRPRPCWVPRP	-0.42
RRIRARPPRLPRPRPRPNIQPRP	-0.122
RRIRTRPPRLPRPRPRPHLWPRP	0.0316
RRIRFRPPRLPRPRPRPYTLPRP	-1.21
RRIRCRPPRLPRPRPRPNAAPRP	0.975
RRIRDRPPRLPRPRPRPNKGPRP	-0.00129
RRIRSRPPRLPRPRPRPAMEPRP	-0.0044
RRIRIRPPRLPRPRPRPNMSPRP	-0.783
RRIRHRPPRLPRPRPRPRWLPRP	0.144
RRIRTRPPRLPRPRPRPALKPRP	0.206
RRIRMRPPRLPRPRPRPPCFPRP	0.257
RRIRGRPPRLPRPRPRPINGPRP	0.1
RRIRNRPPRLPRPRPRPDQQPRP	-0.0806
RRIRDRPPRLPRPRPRPLLPPRP	0.356
RRIRPRPPRLPRPRPRPNLVPRP	-0.225
RRIRYRPPRLPRPRPRPKFRPRP	-0.102
RRIRGRPPRLPRPRPRPMLDPRP	0.485
RRIRCRPPRLPRPRPRPCSEPRP	-0.495
RRIRIRPPRLPRPRPRPGEAPRP	-0.0281
RRIRARPPRLPRPRPRPQYIPRP	-0.566
RRIRCRPPRLPRPRPRPFYVPRP	-0.825
RRIRWRPPRLPRPRPRPLEGPRP	-0.158
RRIRARPPRLPRPRPRPICDPRP	0.497
RRIRERPPRLPRPRPRPHEYPRP	-0.0163
RRIRWRPPRLPRPRPRPECNPRP	0.457

Sequence	shrunken log2 fold change
RRIRTRPPRLPRPRPRPWGIPRP	-0.0774
RRIRFRPPRLPRPRPRPQTGPRP	-0.152
RRIRARPPRLPRPRPRPGLDPRP	0.419
RRIRHRPPRLPRPRPRPITAPRP	-0.303
RRIRIRPPRLPRPRPRPGEMPRP	-0.00568
RRIRARPPRLPRPRPRPLSHPRP	0.186
RRIRYRPPRLPRPRPRPRCFPRP	-0.152
RRIRMRPPRLPRPRPRPHCNPRP	0.043
RRIRIRPPRLPRPRPRPHMFPRP	-1
RRIRDRPPRLPRPRPRPSKYPRP	-0.455
RRIRERPPRLPRPRPRPFIQPRP	-0.176
RRIRMRPPRLPRPRPRPQFFPRP	-0.207
RRIRKRPPRLPRPRPRPCCVPRP	0.265
RRIRPRPPRLPRPRPRPINSPRP	-0.236
RRIRPRPPRLPRPRPRPMTHPRP	-0.268
RRIRYRPPRLPRPRPRPERPPRP	0.232
RRIRWRPPRLPRPRPRPTKSPRP	0.176
RRIRSRPPRLPRPRPRPNIPPRP	-0.492
RRIRKRPPRLPRPRPRPTTTPRP	0.494
RRIRRRPPRLPRPRPRPWFTPRP	0.0255
RRIRCRPPRLPRPRPRPQESPRP	0.192
RRIRPRPPRLPRPRPRPGDPPRP	0.364
RRIRFRPPRLPRPRPRPVGVPRP	0.356
RRIRDRPPRLPRPRPRPFSNPRP	-0.0771
RRIRRRPPRLPRPRPRPDDWPRP	0.359

From the supplement of paper PMC9112550, “Optimization of the antimicrobial peptide Bac7 by deep mutational scanning” (BMC Biology, 2022)
